Biological target: Staphylococcal enterotoxin A (SEA) (Staphylococcus aureus, UniProt P0A0L2 25-257)
Sequence (P0A0L2 25-257): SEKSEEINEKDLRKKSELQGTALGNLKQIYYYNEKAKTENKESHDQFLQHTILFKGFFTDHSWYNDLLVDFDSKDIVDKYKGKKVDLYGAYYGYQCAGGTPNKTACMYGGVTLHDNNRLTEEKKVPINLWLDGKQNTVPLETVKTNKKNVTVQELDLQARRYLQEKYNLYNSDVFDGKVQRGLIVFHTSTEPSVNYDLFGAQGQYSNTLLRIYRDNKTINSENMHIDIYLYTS

B1: C6G5C6-apt (AgNC template) (structured_DNA)
DNA: CCCCCCGGGGGCCCCCCAGCAGCACAGAGGTCAGATGTACTTATGCATTTCCTCCCACGATCTTATTTGAGAGTGACCCTATGCGTGCTACCGTGAA
  binding result: binds

From paper PMC7023026, “A Label-Free Fluorescent Aptasensor for Detection of Staphylococcal Enterotoxin A Based on Aptamer-Functionalized Silver Nanoclusters”
